# Laboratory results reported in patent US20040001839A1, “Multimers - isolated molecules comprising epitopes containing sulfated moieties, antibodies to such epitopes, and uses thereof” (priority 2000, published 2004).
# Key:
# Heparin - BSA = test: Western blot with Y1 on SDS-PAGE reducing gels, heparin-BSA after aryl-sulfatase; type: binding; conditions: 18 hr at 22° C.
# Source text: (§1) Y1 ligand was further characterized using enzymatic treatments with proteases, glycanases, and […]; Western blotting with Y1, anti-CD42 antibodies, anti-CD162 antibodies and 181, immunoprecipitation using Y1 and anti-CD162 antibodies; FACS analysis using Y1 anti-CD162 antibodies; and sequencing.
# (§2) The table below summarizes the biochemical experiments preformed to characterize and localize the Y1 binding site on KG-1 cells.
# (§3) The nitrocellulose membrane was blocked using 5% skim milk for one hour at room temperature. The membrane was then washed 3 times for 5 minutes each with 0.05% Tween 20 in PBS at room temperature. The membrane was incubated with 5 μg/ml Y1-biotin (or 181-biotin) in 2% skim milk in PBS for one hour at room temperature. The membrane was then washed 3 times for 5 minutes each with cold 0.05% Tween 20 in PBS in the cold room (about 4 to about 10° C.). The membrane was then incubated in the cold room with a 1:1000 dilution of SAV-HRP (streptavidin-HRP) (at a final concentration of […]) in 2% skim milk, 0.05% Tween. The dilution was carried out at room temperature (about 25° C.), then the diluted SAV-HRP was cooled on ice for 10-15 minutes before use. The incubation was carried out for 1 hour with gentle shaking. After the incubation with SAV-HRP, the membrane was washed, as above. […]
# [1] = system: RP-HPLC KG-1 membrane fraction; test: Western blot with Y1 on SDS-PAGE reducing gels, KG-1 membrane fraction after enzyme treatment; type: binding, human; conditions: O-Sialo glycoprotein endopeptidase, 30′ at 37° C.
# Source text: as §1, §2, §3
# washed platelets = test: Ristocetin-induced agglutination of washed platelets (scFv); type: cell-based, human; conditions: for % agglutination: 100% = ristocetin treatment; for % inhibition: ristocetin-induced agglutination
# Protocol: Aggregation is determined in PRP due to the presence of thrombotic agents, while agglutination is determined in washed platelets. The effect of Y1 (scFv) on agglutination of washed platelets was tested at various concentrations of Y1. Platelets were pre-incubated with Y1 scFv, Y17 scFv, Y16-scFv, or a control TM-1 scFv for 4 min at 37° C. before being exposed to ristocetin, an inducer of platelet agglutination and aggregation.
# Platelet concentrate in acid-citrate-dextrose (ACD) was obtained from a blood bank, platelets were isolated, washed once in buffer containing ACD and saline in a ratio of 1:7. The platelets were centrifuged at 800 g for 10 min after each wash and were resuspended in Tyrodes solution (2 mM MgCl2, 137 mM NaCl, 2.68 mM KCl, 3 mM NaH2PO4, 0.1% glucose, 5 mM Hepes and 0.35% albumin, pH 7.35) and count the number of cells.
# For platelet aggregation studies, platelet rich plasma (PRP) and washed platelets were stirred at 500 rpm at 37° C. in whole blood Lumiaggregometer (Chronolog, Havertown, Pa.). The difference in light transmission through the platelet suspension and suspending medium was taken as 100% aggregation. The effect of Y1 on platelet aggregation was evaluated by addition of different concentration of Y1 before the addition of agonist, and the effect was recorded for four minutes.
# The effect of Y17-scFv on vWF-dependent agglutination of platelets was tested at different concentrations of Y17.
# Glycocalicin (GC) = biological target: T1, Glycocalicin (GC) (Homo sapiens, UniProt P07359); test: Western blot with Y1 on SDS-PAGE reducing gels, glycocalicin after enzyme treatment; type: binding; conditions: O-Sialo glycoprotein endopeptidase, 30′ at 37° C.
# T1 construct: glycocalicin (soluble, extracellular fragment of GPIbα); from tissue; host or cells: human platelets
# Source text: as §1, §2, §3
# Jurkat cells = test: FACS binding to Jurkat cells (IgG-Y1, scFv-Y1, diabodies, triabodies); design: species or system human; conditions: 1 μg scFv-Y1 versus 5 ng IgG-Y1, two-step staining
# Protocol: Binding experiments were performed to determine the level of binding of the IgG-Y1 molecule compared to the binding level of the scFv-Y1 molecule. A two-step staining procedure was employed, wherein 5 ng of IgG-Y1 were reacted with both RAJI cells (negative control, FIG. 44) and Jurkat cells (Y1 positive cells, FIG. 44). For detection, PE-labeled goat anti-human IgG was used. Similarly, 1 μg of scFv-Y1 was reacted with Jurkat cells (FIG. 44), and PE-labeled rabbit anti-scFv was used for detection.
# FACS analysis was performed on Jurkat cells using a “three step staining procedure.” First, crude extracts or purified unlabeled scFv are stained, then mouse anti-myc antibodies, and finally, FITC- or PE-conjugated anti-mouse antibodies. FACS analysis requires 5-8×10^5 cells, which have been Ficoll-purified and resuspended in PBS+1% BSA. Binding was carried out for 1 hour at 4° C. After each step, cells were washed and resuspended in PBS+1% BSA. After the final staining step, cells were fixed by re-suspending in PBS, 1% BSA, 2% formaldehyde, and then read by FACS (Becton-Dickinson).
# The binding of Y1-scFv was compared to that of diabodies and triabodies.
# KG-1 cells = test: Binding competition experiments on KG-1 cells (monomer, dimer, Y1 IgG); design: species or system human
# Source text: To compare the binding of the scFv monomer (also referred to as CONY1) with the Y1 dimer, binding competition experiments were done in vitro on KG-1 cells. In addition, these experiments also compared the binding of the full Y1 IgG to the scFv Y1 monomers. To perform this study, a Y1 IgG was labeled with biotin.
# [2] = biological target: T2, recombinant bacterial derived glycocalicin (Homo sapiens, UniProt P07359); test: Western blot on E. coli recombinant glycocalicin; type: binding; conditions: E. coli cell lysates, IPTG induced
# T2 construct: glycocalicin (GC, amino acid 1 to amino acid 493 of GPIbα); made in house; host or cells: E. coli BL21 DE3, total cell lysate
# Protocol: The DNA fragment encoding for glycocalicin (GC, amino acid 1 to amino acid 493 of GPIbα) was cloned into an IPTG inducible prokaryotic vector cassette. E. coli (BL21 DE3) cells harboring the newly constructed plasmid were grown at 37° C. to O.D. 0.7-0.8, than at 37° C. for 3 hours for in the presence of IPTG for induction.
# SDS-polyacrylamide gel loaded either with semi-purified human platelet derived glycocalicin (“GC”) or with E. coli cell lysates (“total”) derived from induced and non-induced cells were analyzed. Western blot analysis was performed with biotinylated Y1-scFv, polyclonal rabbit anti-human glycocalicin antibody, commercially available mouse anti-human CD42 monoclonal antibody (SZ2 Immunotech, PM640 Serotec, HIP1 Pharmigen, AN51 DAKO), and polyclonal antibody against the N-terminus of GPIbα (Sc-7071, Santa Cruz).
molecule,measurement,setting,value
"Y1 scFv: fully human scFv clone binding platelets and AML cells; SEQ ID NO:25, heavy chain CDR3 SEQ ID NO:8 (protein, listed as Homo sapiens) scFv: MKYLLPTAAAGLLLLAAQPAMAEVQLVESGGGVVRPGGSLRLSCAASGFTFDDYGMSWVRQAPGKGLEWVSGINWNGGSTGYADSVKGRFTISRDNAKNSLYLQMNSLRAEDTAVYYCARMRAPVIWGQGTLVTVSRGGGGSGGGGSGGGGSSELTQDPAVSVALGQTVRITCQGDSLRSYYASWYQQKPGQAPVLVIYGKNNRPSGIPDRFSGSSSGNTASLTITGAQAEDEADYYCNSRDSSGNHVVFGGGTKLTVLGAAAEQKLISEEDLNGAA",Reactivity with Y1,Heparin - BSA,Binds to
same,Reactivity with Y1,[1],Reactivity
same,% agglutination,washed platelets; scFv 4 μg/ml,92%
same,% inhibition,washed platelets; scFv 4 μg/ml,8%
same,% inhibition,"washed platelets; scFv 4 μg/ml, listed as Y1",No inhibition
same,% agglutination,washed platelets; scFv 12.5 μg/ml,67%
same,% inhibition,washed platelets; scFv 12.5 μg/ml,33%
same,% inhibition,"washed platelets; scFv 12.5 μg/ml, listed as Y1",only partial inhibition
same,% agglutination,washed platelets; scFv 25 μg/ml,23%
same,Reactivity with Y1,Glycocalicin (GC),Enhanced
same,more molecules needed for a level of detection similar to IgG-Y1,Jurkat cells,approximately 10^3 fold
same,amount bound to KG-1 cells to the same extent,"KG-1 cells; FITC-labeled, without serum",1 µg
same,competition with Y1 IgG-Biotin for binding to KG-1 cells,"KG-1 cells; Y1 IgG-Biotin 50 ng, Y1 scFvs 5 μg and 10 μg",partially competed
same,recognition in Western blot,[2],did not recognize
